# Results as given in patent US20120101255A1.
# Biological target: Recombinant Cx43CT (carboxyl terminal domain of rat connexin43, residues 255-382, preceded by GPLG) (rat) (UniProt P08050)
# Assay: SPR on the carboxyl terminal domain of Cx43, peptide at 1.0 mM
# Sequence of Recombinant Cx43CT (carboxyl terminal domain of rat connexin43, residues 255-382, preceded by GPLG) (rat) (P08050 other isoform, or with tags, fused parts or gaps limits assumed): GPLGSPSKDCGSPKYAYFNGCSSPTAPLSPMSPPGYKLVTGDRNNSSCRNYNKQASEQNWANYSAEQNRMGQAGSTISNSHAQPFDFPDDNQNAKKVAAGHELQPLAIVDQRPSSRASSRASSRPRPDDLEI
substance,measurement,value
AcRNP-NH2 (Identification No. 2502) (peptide),Response (arbitrary units),4.6
